Source: US6803203B1, “DNA-PK assay” (Brookhaven Science Associates, priority 1993, dated 2004)

B1: substrate 1: wild-type recombinant substrate: Ser Gln Glu DNA-PK site and wild-type Oct-1 POU domain; product of p349SUB1 (protein)
chain: MPEESQETFEDLWKLLPGHHHHHHGMSGGMEEPSDLEELEQFAKTFKQRRIKLGFTQGDVGLAMGKLYGNDFSQTTISRFEALNLSFKNMCKLKPLLEKWLNDAENLSSDSSLSSPSALNSPGIEGLSRRRKKRTSIETNIRVALEKSFLENQKPTSEEITMIADQLNMEKEVIRVWFCNRRQKEKRINPQPELAPEDPED
modifications: POUSUB1 artificial DNA-PK substrate
notes: wild-type recombinant substrate: Ser Gln Glu DNA-PK site and wild-type Oct-1 POU domain; product of p349SUB1
B2: recombinant wild-type mouse p53: wild-type mouse p53 purified from Sf9 insect cells infected with recombinant virus NPVp53 (protein, UniProt P02340 1-390, looked up)
Cellular tumor antigen p53: MTAMEESQSDISLELPLSQETFSGLWKLLPPEDILPSPHCMDDLLLPQDVEEFFEGPSEALRVSGAPAAQDPVTETPGPVAPAPATPWPLSSFVPSQKTYQGNYGFHLGFLQSGTAKSVMCTYSPPLNKLFCQLAKTCPVQLWVSATPPAGSRVRAMAIYKKSQHMTEVVRRCPHHERCSDGDGLAPPQHLIRVEGNLYPEYLEDRQTFRHSVVVPYEPPEAGSEYTTIHYKYMCNSSCMGGMNRRPILTIITLEDSSGNLLGRDSFEVRVCACPGRDRRTEEENFRKKEVLCPELPPGSAKRALPTCTSASPPQKKKPLDGEYFTLKIRGRKRFEMFRELNEALELKDAHATEESGDSRAHSSYLKTKKGQSTSRHKKTMVKKVGPDSD

How the values were obtained:
[1] = target: T1, DNA-PK (Homo sapiens, UniProt P78527); experiment: Phosphorylation of recombinant protein substrates by purified DNA-PK (SDS-PAGE, phosphorimage); assay type: biochemical
T1 construct: DNA-PK was purified from HeLa cells; endogenous in cells; host or cells: HeLa S3 cells; the endogenous enzyme was purified in house by chromatography
Method: The recombinant protein substrates, a total of six, (at approximately 0.1 mg/ml final concentration) were separately mixed with hsp90 in a phosphorylation reaction with purified DNA-PK (0.6 pg, 0.02 units/assay) without (−) or with (+) 5 μg/ml calf thymus DNA, in the presence of ^32P-ATP for 30 minutes at 30° C. as described by Lees-Miller, et al., Mol. Cell. Biol., 12:5041-5049 (1992). The phosphorylation reactions were stopped with SDS sample buffer and analyzed with SDS-PAGE. The gel was fixed, stained with Coomassie brilliant blue, dried and developed by autoradiographic procedures. The results of which can be seen in FIG. 9.

[2] = target: T1, DNA-PK; experiment: Phosphorylation of mouse p53 by DNA-PK as a function of DNA concentration; assay type: biochemical; settings: calf thymus DNA 100 μg/ml
Method: To determine whether DNA binding affected p53 phosphorylation by DNA-PK, the rate of phosphorylation of recombinant wild-type mouse p53 was measured as a function of DNA concentration. At low calf thymus DNA concentrations (0 to approximately 10 μg/ml), the initial rate of p53 phosphorylation increased sharply but then decreased as the DNA concentration was further increased. At DNA concentrations of 100 μg/ml, the rate of p53 phosphorylation fell to approximately 25% of the rate at 5 μg/ml. A similar dependence of phosphorylation rate on calf thymus DNA concentration was observed using SV40 TAg or the human Oct-1 POU domain as substrates.

Molecule | increase in phosphate incorporation by addition of double stranded DNA ([1]; 5 μg/ml calf thymus DNA compared to no addition of DNA, 30 minutes at 30° C.) [fold] | phosphorylation by purified DNA-PK (in words) ([1]; DNA-dependent, compared with hsp90) | rate of p53 phosphorylation relative to the rate at 5 μg/ml DNA [2]
B1 | 20 | equal to, if not better than, hsp90 | –
B2 | – | – | approximately 25%
